The record followed here is paper PMC4073121.

The target in test [1] is bfloGFPa1, green fluorescent protein of Amphioxus (Branchiostoma floridae) (Branchiostoma floridae). In words: SEC; size exclusion chromatography of the purified protein (Fig. S1); column and buffer not told. A general note: Size exclusion chromatography separates by hydrodynamic size, large species first.
Test [2] has as its target bfloGFPc1, green fluorescent protein of Amphioxus (Branchiostoma floridae) (Branchiostoma floridae). Described as above.

Consider “bfloGFPa1, green fluorescent protein of Amphioxus (Branchiostoma floridae) (natural protein)”, for which the stoichiometry N (usually a count of units in the complex or per binding partner) in test [1] is 2.

The substance “bfloGFPc1, green fluorescent protein of Amphioxus (Branchiostoma floridae) (natural protein)” yielded a stoichiometry N in test [2] of 2.
